One block for each molecule: values may come before it. Where no end group is shown, it is not given here. [ ]: non-standard residue; d: D form. Arg(Me2s) = CN=C(NC)NCCC[C@H](N)C(=O)O
Assays:
[1] = molecular target: Krimper eTud1 (residues 272-512) (Drosophila melanogaster) (UniProt A1ZAC4); test: ITC; Malvern PEAQ ITC; 50 mM NaCl, 20 mM HEPES pH 7.5, 2 mM β-mercaptoethanol; Krimper Tudor domain with peptides
Krimper eTud1ΔC = molecular target: T1, Krimper eTud1ΔC (Drosophila melanogaster, UniProt A1ZAC4); format: binding; settings: ITC, Fig. 1f, unmethylated Ago3-2 peptide
T1 construct: Krimper contains two extended Tudor domains: eTud1(272-512) and eTud2 (562-746); made in house
Description: All ITC was performed using the Malvern PEAQ ITC instrument (Malvern) in a buffer of 50 mM NaCl, 20 mM HEPES pH 7.5, and 2 mM β-mercaptoethanol. Data analysis was performed using the Malvern data analysis software and Origin 7.0.

[2] = molecular target: T2, Krimper eTud1 (residues 272-512) (Drosophila melanogaster, UniProt A1ZAC4); test: ITC analysis of Krimper eTud1 with Ago3 or Aub peptides; format: binding; settings: Fig. 1f
T2 construct: Krimper eTud1 (residues 272-512) was cloned into a self-modified pSumo vector; 10xHis (N, cleaved yes); yeast SUMO (N, cleaved yes); made in house; host or cells: E. coli BL21(DE3) Rosetta
T2 sequence (A1ZAC4 272-512): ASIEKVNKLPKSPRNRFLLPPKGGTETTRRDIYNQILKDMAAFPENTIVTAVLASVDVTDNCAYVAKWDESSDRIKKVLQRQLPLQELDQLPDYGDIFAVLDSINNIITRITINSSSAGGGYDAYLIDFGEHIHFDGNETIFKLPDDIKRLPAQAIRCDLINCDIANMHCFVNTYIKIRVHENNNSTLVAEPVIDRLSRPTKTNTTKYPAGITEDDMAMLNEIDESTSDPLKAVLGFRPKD
From the text: However, the region of Krimper responsible for Ago3 binding remained unknown. To study the Ago3-Krimper interaction, we expressed and purified eTud1 and eTud2 domains of Krimper (Fig. 1c) and tested their binding to peptides derived from the N-terminal Ago3 sequence using isothermal titration calorimetry (ITC) (Fig. 1f and Supplementary Fig. 1a). […] Thus, the two Tudor domains of Krimper have different binding preferences ensuring that Aub and Ago3 can bind Krimper simultaneously without direct competition for a binding site.
Krimper eTud1 (residues 272-512) was cloned into a self-modified pSumo vector with 10×His tag followed by a yeast sumo sequence. The plasmid was transformed into E. coli strain BL21(DE3) Rosseta and cultured at 37 °C in LB medium. The protein expression was induced by adding IPTG to a final concentration of 0.2 mM when the OD600 reached 0.7, and the cells were cooled to 16 °C. The recombinant expressed protein was purified using a HisTrap column (GE Healthcare). The […] plus yeast sumo tag was removed by ulp1 protease digestion followed by a second step HisTrap column (GE Healthcare). The target protein was further purified using MonoQ and Superdex G75 columns (GE Healthcare).
All ITC was performed using the Malvern PEAQ ITC instrument (Malvern) in a buffer of 50 mM NaCl, 20 mM HEPES pH 7.5, and 2 mM β-mercaptoethanol. […]

[3] = molecular target: T3, Krimper eTud2 (residues 562-746) (Drosophila melanogaster, UniProt A1ZAC4 562-746); test: ITC; R70me2
T3 chain: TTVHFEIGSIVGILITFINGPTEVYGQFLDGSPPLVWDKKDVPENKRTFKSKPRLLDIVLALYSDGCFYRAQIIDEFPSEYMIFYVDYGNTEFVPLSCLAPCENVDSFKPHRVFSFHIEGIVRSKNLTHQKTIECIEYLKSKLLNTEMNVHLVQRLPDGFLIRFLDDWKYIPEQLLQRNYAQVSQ

[4] = molecular target: T3, Krimper eTud2 (residues 562-746); test: ITC; R68me2
[5] = molecular target: T3, Krimper eTud2 (residues 562-746); test: ITC; R72me2
[6] = molecular target: T3, Krimper eTud2 (residues 562-746); test: ITC; R15me2

Molecule: NISVGRGRARLIDTLK [Ago3-2]
- binding affinity of eTud1 ΔC compared with eTud1 (in words) (Krimper eTud1ΔC): higher binding affinity

Molecule: NISVGRG[Arg(Me2s)]ARLIDTLK [Ago3-2 peptide methylated at R70]
- Kd [3]: 2.2 µM

Molecule: NISVGRGRA[Arg(Me2s)]LIDTLK [Ago3-2 peptide methylated at R72]
- Kd [5]: 34.5 µM

Molecule: NPVIARGRGRGRK (also: symmetric dimethylarginine at R15) [Aub-R15me2 peptide]
- Kd [6]: 8.26 µM

Now from value to molecule:

- Kd [1]: 62.8 µM
Molecule: Ago3-2 peptide (aa residues 63-78 of Ago3) (from UniProt Q7PLK0 63-78)

- binding to eTud1 (in words) [2]: does not detectably interact
Molecule: H-NPVIARGRGRGRK-OH [Aub-1, unmethylated peptide from the N-terminal RG-repeat region of Aub used for ITC and structural analysis]

- Kd [4]: 6.67 µM
Molecule: NISVG[Arg(Me2s)]GRARLIDTLK [Ago3-2 peptide methylated at R68]

Source: article PMC8249470, “Binding of guide piRNA triggers methylation of the unstructured N-terminal region of Aub leading to assembly of the piRNA amplification complex” (Nature Communications, 2021)
